According to patent US12329801B2, “Regenerative polypeptides and uses thereof” (JUVENA THERAPEUTICS, INC., priority 2021, dated 2025):

Tested on: DM1 human myoblast
Assay: Myogenic gene expression fold change in DM1 human myoblast
Format: cell-based
Conditions: 48 h; BMP7 50 ng/mL, Butyrate 100 nM, IGF2 200 ng/mL
Protocol: Myoblasts were cultured 48 h in the presence of factors (BMP7 50 ng/mL, Butyrate 100 nM, IGF2 200 ng/mL).
Myoblasts were cultured 96 h in the presence of factors (IGF2 200 ng/ml). […] Myoblasts were cultured 48 h in the presence of factors (IGF2 200 ng/mL).
IGF2 was tested individually for its ability to promote proliferation and/or fusion of human muscle progenitor cells from an individual with myotonic dystrophy type 1 (hMD)—a muscular dystrophy caused by mutations in the DMPK1 gene. The effect of IGF2 on myogenic activity was assayed in biological triplicate across a range of concentrations centered around expected physiological levels by adding each factor to hMD myoblasts for 72 hours with daily media changes (DMEM +2% horse serum) and a second pulse of factors at the first media change. After 72 or 96 hours, cells were pulsed for 2-5 hours with EdU (30 uM), ethanol fixed, stained with Hoescht 3342, immunostained for proliferation—as measured by the percent of cells staining positive for EdU (% EdU)-, and immunostained for differentiation—as measured by the increase in cellular area staining positive for embryonic myosin heavy chain (% eMyHC) relative to the negative controls, which received media and vehicle only. Wells were imaged on a Keyence BZ-100 at 4×, the images quantified in Cell Profiler, and the statistics were computed in R. Additionally, RNA was extracted from myoblast and select transcript abundances quantified by qPCR.

B1: BMP7: factor BMP7, 50 ng/mL, tested on DM1 human myoblast (protein, UniProt P18075 293-431, looked up)
Bone morphogenetic protein 7: STGSKQRSQNRSKTPKNQEALRMANVAENSSSDQRQACKKHELYVSFRDLGWQDWIIAPEGYAAYYCEGECAFPLNSYMNATNHAIVQTLVHFINPETVPKPCCAPTQLNAISVLYFDDSSNVILKKYRNMVVRACGCH
B1 was tested, and the “MYF5 expression fold change compared to FM (vehicle)” value was 0.709, the “MYOD1 expression fold change compared to FM (vehicle)” value was 0.709 and the “MYOG expression fold change compared to FM (vehicle)” value was 0.361.
